# Experimental data from US20230105029A1 (CHIA TAI TIANQING PHARMACEUTICAL GROUP, published 2023).
# Read-outs that look alike come from different tables or passages of the source.
# T1: marmoset monkey IL4Rα-his protein (marmoset monkey)
# T1 construct: Custom made by Sino biological; no cleavage site stated; also called cal-IL4Rα-his; Cal-IL4Rα
# T1 chain: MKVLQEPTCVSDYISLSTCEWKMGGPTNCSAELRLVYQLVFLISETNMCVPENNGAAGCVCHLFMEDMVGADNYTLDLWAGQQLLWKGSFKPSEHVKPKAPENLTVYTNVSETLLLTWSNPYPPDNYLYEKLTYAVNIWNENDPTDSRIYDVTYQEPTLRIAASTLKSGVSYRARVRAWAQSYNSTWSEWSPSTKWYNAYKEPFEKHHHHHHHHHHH
# Assays:
# [1] = biological target: T2, recombinant human IL4Rα-his protein (in house made) (human, UniProt P24394 26-232, limits assumed); test: competitive ELISA: coated human IL4Rα-his, blocked ligand biotin human IL4
# T2 construct: also called Human IL4Ra-his
# Experimental: The activity of the anti-IL4Rα antibodies of the disclosure to block IL4-IL4Rα interaction was measured in a competitive ELISA assay. Briefly, 100 μl human IL4Rα-his proteins (prepared in-house with SEQ ID NO: 57) were coated on 96-well micro plates at 2 μg/mL in PBS overnight at 4° C. The next day, plates were washed with wash buffer (PBS+0.05% w/v Tween-20, PBST), and blocked with 5% w/v non-fatty milk in PBST for 2 hours at 37° C. Plates were then washed again using wash buffer.
# Serially diluted anti-IL4Rα antibodies or the controls (starting at 80 nM with a 4-fold serial dilution) in 2.5% w/v non-fatty milk in PBST, 100 μl per well, were added to the IL4Rα bound plates, and incubated with the human IL4Rα-his proteins at 37° C. for 40 minutes. Plates were washed 4 times using wash buffer, and then added and incubated for 40 minutes at 37° C. with 100 μl/well of 0.56 nM biotin-labeled human IL4 protein (Sino biological inc., Cat #11846-HNAE). Plates were washed again using wash buffer. Thereafter, the plates were added with 100 μl/well of streptavidin conjugated HRP (1:10000 dilution in PBST buffer, Jackson Immunoresearch, Cat #016-030-084) and incubated for 40 minutes at 37° C. Plates were washed again using wash buffer. Finally, TMB was added and the reaction was stopped using 1M H₂SO₄, and the absorbance was read at 450 nm. Data was analyzed using Graphpad Prism software and IC₅₀ values were reported.
# [2] = biological target: T3, human IL4Rα expressed on 293F-IL4Rα cells (human, UniProt P24394 26-825); test: flow cytometry on 293F-IL4Rα cells, blocked ligand biotin human IL4
# T3 construct: whole, on cells; also called cell surface human IL4Rα
# Experimental: (§1) Then, 1×10⁵ cells per well in 96 well-plates were incubated in 100 μL of the anti-IL4Rα antibodies or controls of various concentrations (starting at 80 nM with a 4-fold serial dilution) in FACS buffer for 40 minutes on ice. The plates were washed twice with FACS buffer, and added and incubated for 40 minutes at 4° C. in dark with 100 μl/well 1.67 nM biotin-labeled human IL4 protein (Sino biological inc., Cat #11846-HNAE). The plates were washed twice with FACS buffer, and then added and incubated for 40 minutes at 4° C. in dark with 100 μl/well R-Phycoerythrin Streptavidin (1:500 dilution in FACS buffer, Jackson Immunoresearch, Cat #016-110-084). Cells were washed twice and resuspended in FACS buffer. Fluorescence was measured using a Becton Dickinson FACS Canto II-HTS equipment. Data was analyzed using Graphpad Prism software and IC₅₀ values were reported.
# [3] = biological target: T3, human IL4Rα expressed on 293F-IL4Rα …; test: flow cytometry, 293F-IL4Rα cells
# Experimental: (§2) Then, 2×10⁵ cells per well in 96 well-plates were incubated in 100 μL of the anti-IL4Rα antibodies or controls of various concentrations (starting at 80 nM with a 4-fold serial dilution) in FACS buffer for 40 minutes on ice. […] Following an incubation of 40 minutes at 4° C. in dark, cells were washed three times and resuspended in FACS buffer. Fluorescence was measured using a Becton Dickinson FACS Canto II-HTS equipment. Data was analyzed using Graphpad Prism software and EC₅₀ values were reported.
# [4] = biological target: T3, human IL4Rα expressed on 293F-IL4Rα …; test: flow cytometry, blocks biotin-IL4 binding to 293F-IL4Rα cells
# Experimental: as §1
# [5] = biological target: T1, marmoset monkey IL4Rα-his protein; test: indirect ELISA on coated cal-IL4Rα-his
# [6] = biological target: T2, recombinant human IL4Rα-his protein (in …); test: SPR (Biacore), antibody captured, IL4Rα-his flowed
# [7] = biological target: T3, human IL4Rα expressed on 293F-IL4Rα …; test: flow cytometry on 293F-IL4Rα cells, blocked ligand biotin human IL4; remark: listed apart in the source
# [8] = biological target: T4, cynomolgus monkey IL4Rα-his protein (cynomolgus monkey, UniProt A0A2K5V580 33-239); test: indirect ELISA on coated cynomolgus IL4Rα-his
# T4 construct: Bought protein; also called Cynomolgus IL4Rα; Cyno-IL4Rα-his; not shown: his tag
# [9] = biological target: T3, human IL4Rα expressed on 293F-IL4Rα …; test: flow cytometry, 293F-IL4Rα cells; remark: listed apart in the source
# Experimental: as §2
# [10] = biological target: T1, marmoset monkey IL4Rα-his protein; test: indirect ELISA on coated cal-IL4Rα-his
# [11] = biological target: T3, human IL4Rα expressed on 293F-IL4Rα …; test: flow cytometry on 293F-IL4Rα cells
# [12] = biological target: T2, recombinant human IL4Rα-his protein (in …); test: competitive ELISA: coated human IL4Rα-his, blocked ligand biotin human IL4; remark: listed apart in the source
# [13] = biological target: human IL4Rα expressed on HEK293T-IL4Rα-STAT6-STAT6LUC-LB2 cells (human, UniProt P24394 26-825); test: cell-based or functional assay
# [14] = biological target: T2, recombinant human IL4Rα-his protein (in …); test: SPR (Biacore), antibody captured, IL4Rα-his flowed; remark: listed apart in the source
Binder,IC50 [1] [nM],IC50 [2] [nM],EC50 [3] [nM],IC50 [4] [nM],EC50 [5] [nM],Kd [6] [nM],IC50 [7] [nM],EC50 [8] [nM],EC50 [9] [nM],EC50 [10] [nM],EC50 [11] [nM],IC50 [12] [nM],"Inhibition on IL4 induced STAT6 phosphorylation (IC50, nM) [13] [nM]","Inhibition on IL13 induced STAT6 phosphorylation (IC50, nM) [13] [nM]",Kd [14] [nM]
"mouse antibody B1D2F7D3B5 (antibody, V domains shown, Mouse hybridoma mAb) VH: EVKLVESGGGLVKPGGSLKLSCAASGFTFSSYAMSWVRQTPEKRLEWVASISSGDSTYYLDSVKGRFTISRDNAMNILYLQMSSLRSEDTAVYYCERSGGSAPYWGQGTLVSVSA VL: QIVLTQSPAIMSASPGEMVTISCSASSSVSYMYWYQQKPGSSPKPWIYRTSNLASGVPARFSGSGSGTSYSLTISSMEAEDAATYYCQQYHSFPLTFGAGTKLELK",1.8,0.787,0.25,0.78,,,,,,,,,,,
"mouse antibody B9D1D11F8D8 (antibody, V domains shown, Mouse hybridoma mAb) VH: EVKLVESGGGLVKPGGSLKLSCAASGFTFSSYAMSWVRQTPEKRLEWVASISSGDSTYYLDSVKGRFTISRDNARNILYLQVSSLRSEDTAMYYCERSGGSAPYWGQGTLVTVSA VL: QIVLTQSPAIMSASPGDMVTISCSASSSVNYMYWYQQKPGSSPKPWIYRTSNLASGVPARFSGSGSGTSYSLTISSMEAEDAATYYCQQYHSFPLTFGAGTKLELK",2.88,0.748,0.22,0.75,,,,,,,,,,,
"mouse antibody C2C1A1A1 (antibody, V domains shown, Mouse hybridoma mAb; also called Mouse C2C1A1A1) VH: EVQLVESGGGLVQPGGSLKLSCAASGFTFSTYGMSWVRQTPDKRLELVATINSNGGSTSYPDSVKGRFTISRDNAKNTLYLQMSSLKSEDTAMFYCARFFRFRNAMDYWGQGTSVTVSS VL: DIQMTQSPASLSASVGETVTITCRTSENIYSYLAWYQQKQGKSPQFLVYNAKTLAEGVPSRFSGSGSGTQFSLNINSLQSEDFGSYYCQHYYGPPTWTFGGGTKLEIK",0.812,0.44,0.16,0.44,0.574,0.119,,,,,,,,,
"mouse antibody C2B2F7B7 (antibody, V domains shown, Mouse hybridoma mAb) VH: EVQLVESGGGLVQPGGSLKLSCAASGFTFSTYGMSWVRQTPDKRLELVATINSNGGSTNYPDSVKGRFTISRDNAKNTLYLQMSSLKSEDTAMYYCARFFRIRNAMDYWGQGTSVTVSS VL: DIQMTQSPASLSASVGETVTITCRASENIYSYLAWYQQKQGKSPQFLVYNAKTLAEGVPSRFSGSGSGTQFSLKINSLQPEDFGSYYCQHYYGTPTWTFGGGTKLEIK",0.726,0.397,0.18,0.4,,,,,,,,,,,
"mouse antibody B8G11F2B7G5E8 (antibody, V domains shown, Mouse hybridoma mAb; also called Mouse B8G11F2B7G5E8; mAb B8G11F2B7G5E8) VH: EVQLQQSGADLVRPGASVKLSCTASGFNIKDTYMHWVKQRPEQGLEWVGRIDPTNGYTIYASKFQGKATITADTSSNTAYMQLSSLTSGDTAVYHCVSRRPWFAYWGQGTLVTVSA VL: DILMTQTPLSLPVSLGAQASISCRSSQSIVHSNGNTYLEWYLQKPGQSPKLLIYKVTNRFSGVPDRFSGSGSGTDFTLKISRVEAEDLGIYYCFQGSHVPYTFGGGTKLEIK",0.81,0.804,0.25,0.8,,2.98,0.5,0.5,0.33,0.873,0.325,1,,,
"chimeric antibody B8G11F2B7G5E8 (antibody, human IgG4 S228P, kappa, V domains shown, Mouse variable domains on human IgG4/kappa; also called Chimeric B8G11F2B7G5E8; chB8G11F2B7G5E8) VH: EVQLQQSGADLVRPGASVKLSCTASGFNIKDTYMHWVKQRPEQGLEWVGRIDPTNGYTIYASKFQGKATITADTSSNTAYMQLSSLTSGDTAVYHCVSRRPWFAYWGQGTLVTVSA VL: DILMTQTPLSLPVSLGAQASISCRSSQSIVHSNGNTYLEWYLQKPGQSPKLLIYKVTNRFSGVPDRFSGSGSGTDFTLKISRVEAEDLGIYYCFQGSHVPYTFGGGTKLEIKR",,,,,,2.99,0.364,1.06,0.44,1.01,0.442,1.42,0.45,0.5,3.23
"chimeric antibody C2C1A1A1 (antibody, human IgG4 S228P, kappa, V domains shown, Mouse variable domains on human IgG4/kappa; also called Chimeric C2C1A1A1; chC2C1A1A1) VH: EVQLVESGGGLVQPGGSLKLSCAASGFTFSTYGMSWVRQTPDKRLELVATINSNGGSTSYPDSVKGRFTISRDNAKNTLYLQMSSLKSEDTAMFYCARFFRFRNAMDYWGQGTSVTVSS VL: DIQMTQSPASLSASVGETVTITCRTSENIYSYLAWYQQKQGKSPQFLVYNAKTLAEGVPSRFSGSGSGTQFSLNINSLQSEDFGSYYCQHYYGPPTWTFGGGTKLEIKR",,,,,0.623,0.522,,,0.33,,,,0.26,0.39,0.388
